This is an account of results in publication PMC3571872 (Molecular Biology of the Cell, 2013).

Square brackets hold non-standard residues; d marks the D form. pS = N[C@@H](COP(=O)(O)O)C(=O)O

The chains are these.
B2: S780D GST-Kex2p C-tail fusion protein (domain or fragment, yeast, UniProt P13134 700-814, looked up)
chain: KSRRRIRRSRAETYEFDIIDTDSEYDSTLDNGTSGITEPEEVEDFDFDLSDEDHLASLSSSENGDAEHTIDSVLTNENPFDDPIKQKFPNDANAESASNKLQELQPDVPPSSGRS
B4: Gga2p VHS-GAT-His6 (domain or fragment, yeast, UniProt P38817 1-336, looked up)
chain: MSHPHSHSIYLSELPVRKPQALGNPLLRKIQRACRMSLAEPDLALNLDIADYINEKQGAAPRDAAIALAKLINNRESHVAIFALSLLDVLVKNCGYPFHLQISRKEFLNELVKRFPGHPPLRYSKIQRLILTAIEEWYQTICKHSSYKNDMGYIRDMHRLLKYKGYAFPKISESDLAVLKPSNQLKTASEIQKEQEIAQAAKLEELIRRGKPEDLREANKLMKIMAGFKEDNAVQAKQAISSELNKLKRKADLLNEMLESPDSQNWDNETTQELHSALKVAQPKFQKIIEEEQEDDALVQDLLKFNDTVNQLLEKFNLLKNGDSNAASQIHPSHVS

Experiment [1] addresses S780A GST-Kex2p C-tail fusion protein (yeast) (UniProt P13134). Nature of the experiment: ITC. A general note: In ITC the heat of successive injections is recorded.
The target is the same in experiment [2]. Nature of the experiment: pull-down.
The target of experiment [3] is B4. Description: pull-down.
The target in experiment [4] is B4. Nature of the experiment: ITC.
Experiment [5] deals with B2. Description: pull-down.

As usually defined, the Kd is the concentration at which binding is half-saturated. “Gga2p VHS-GAT-His6 (from UniProt P38817 1-336) (domain or fragment)” had an equilibrium dissociation constant (Kd) in experiment [1] of 400 µM. Further, in experiment [2], the fold lower binding than the WT tail amounted to 2 fold and the t1/2 of dissociation stood at 40 min.

B1: Phosphopeptide PP2 (peptide)
peptide: Ac-CTNENPF[pS]DPIKQKF-NH2
SMILES: CC[C@H](C)[C@H](NC(=O)[C@@H]1CCCN1C(=O)[C@H](CC(=O)O)NC(=O)[C@H](COP(=O)(O)O)NC(=O)[C@H](Cc1ccccc1)NC(=O)[C@@H]1CCCN1C(=O)[C@H](CC(N)=O)NC(=O)[C@H](CCC(=O)O)NC(=O)[C@H](CC(N)=O)NC(=O)[C@@H](NC(=O)[C@H](CS)NC(C)=O)[C@@H](C)O)C(=O)N[C@@H](CCCCN)C(=O)N[C@@H](CCC(N)=O)C(=O)N[C@@H](CCCCN)C(=O)N[C@@H](Cc1ccccc1)C(N)=O
Turning to B1, in the experiment with Gga2p VHS-GAT-His6 [3], the binding result is recorded as “binds”.

As to Ac-CLTNENPFSDPIKQKF-NH2 [Nonphosphorylated peptide NPP], the binding result in the experiment with Gga2p VHS-GAT-His6 [3] is listed as “binds”.

B2 returned a Kd with Gga2p VHS-GAT-His6 [4] of 6.6 µM.

B3: WT GST-Kex2p C-tail fusion protein (domain or fragment, yeast, UniProt P13134 700-814, looked up)
chain: KSRRRIRRSRAETYEFDIIDTDSEYDSTLDNGTSGITEPEEVEDFDFDLSDEDHLASLSSSENGDAEHTIDSVLTNENPFSDPIKQKFPNDANAESASNKLQELQPDVPPSSGRS
As for B3, in the experiment with Gga2p VHS-GAT-His6 [4], the Kd amounted to 10 µM. Compared with the last molecule, the Kd is about 1.5-fold higher.

Turning to B4, the “fold higher binding than the WT tail” value in experiment [5] stood at 2 fold.
